Measurements from patent US20030124132A1 (University of Texas, published 2003).

Experiments:
[1] = test system: bEnd.3 endothelial cells; test: PS surface expression on endothelial cells exposed to H2O2 (anti-PS IgM staining); assay type: cell-based, mouse
Protocol: (§1) Mouse bEnd.3 endothelial cells were seeded at an initial density of 50,000 cells/well. Twenty-fours later cells were incubated with increasing concentrations of H2O2 (from 10 μM to 500 μM) for 1 hour at 37° C. or left untreated. At the end of the incubation, cells were washed 3 times with PBS containing 0.2% gelatin and fixed with 0.25% glutaraldehyde. Identical wells were either stained with anti-PS IgM or trypsinized and evaluated for viability by the Trypan Blue exclusion test. For the anti-PS staining, after blocking with 2% gelatin for 10 min., cells were incubated with 2 μg/ml of anti-PS antibody, followed by detection with anti-mouse IgM-HRP conjugate.

[2] = test system: bEnd.3 endothelial cells; test: Viability of endothelial cells exposed to H2O2 (Trypan Blue exclusion); assay type: cell-based, mouse
Protocol: as §1

[3] = test system: human umbilical vein endothelial cells (HUVEC); details: cited from earlier work
[4] = test system: tissue factor on HUVEC cells; test: FACS analysis of tissue factor expression on endothelial cells; assay type: cell-based, human; details: TNFα 500 U/ml, LPS 10 μg/ml, VEGF 1 nM, alone or in combination, 6 h
Protocol: To analyze tissue factor expression on the surface of endothelial cells, HUVEC cells were incubated with TNFα (500 U/ml), LPS (10 μg/ml) or vascular endothelial growth factor (VEGF, 1 nM) alone or in combination for 6 h at 37°. Cells were then detached and stained for surface expression of human tissue factor with a sheep-anti-human tissue factor antibody (Haemochrom, Essen, Germany) and an appropriate FITC-conjugated secondary antibody. Fluorescent cells were detected on a flow cytometer (Becton Dickinson, San Jose, Calif.).

[5] = test system: TNFα; details: cited from earlier work
[6] = target: I-A^d MHC Class II antigen (mouse) (UniProt P04228); test: cell-based or functional assay
[7] = target: I-A^d MHC Class II antigen (mouse) (UniProt P04228); test: FACS
[8] = test system: cancer patients having progressive disease; details: progressive disease before treatment; cited from earlier work
[9] = target: T1, tissue factor on the surface of stimulated 2F2B mouse endothelial cells (mouse, UniProt P20352 29-294); test: FACS on 2F2B mouse endothelial cells stimulated with LPS or TNF alpha, detection with sheep anti-human TF antibody; also a cell bound coagulation assay
T1 construct: whole, on cells; also called cell-surface tissue factor; endogenous TF
T1 sequence (looked up): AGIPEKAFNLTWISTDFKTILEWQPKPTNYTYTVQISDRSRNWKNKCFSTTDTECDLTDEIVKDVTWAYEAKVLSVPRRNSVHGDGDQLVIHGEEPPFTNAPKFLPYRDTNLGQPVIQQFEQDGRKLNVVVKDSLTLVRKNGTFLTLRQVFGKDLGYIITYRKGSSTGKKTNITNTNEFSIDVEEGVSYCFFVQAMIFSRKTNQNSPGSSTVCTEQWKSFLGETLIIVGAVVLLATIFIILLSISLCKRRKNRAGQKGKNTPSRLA

[10] = test system: A20 lymphoma cells (I-A^d positive), mouse or human plasma; test: In vitro coagulation assay on A20 cells with capture bispecific antibody B21-2/10H10; assay type: cell-based; details: for concentration at which plasma coagulated in 50 seconds: bound via B21-2/10H10 to A20 cells, separate studies per block; for coagulation inducing activity lower than reference: versus monomer / unconjugated form or tTF219
[11] = test system: IL-1α-stimulated bEnd.3 cells; test: Chromogenic assay of Factor Xa formation by cell-bound coaguligand, with Annexin V; assay type: cell-based, mouse; details: Annexin V 10 μg per ml
Protocol: The ability of Annexin V to affect Factor Xa formation induced by coaguligand was determined by a chromogenic assay. […] Annexin V was added at concentrations ranging from 0.1 to 10 μg/ml and cells were incubated for 30 min. before addition of diluted Proplex T. The amount of Factor Xa generated in the presence or absence of Annexin V was determined. Each treatment was performed in duplicate and repeated at least twice.

[12] = test system: L540 Hodgkin tumor blood vessels; test: Annexin V inhibition of coaguligand-induced thrombosis in vivo; parameters: species or system SCID mice; details: 100 μg Annexin V alone or 2 hours before 40 μg coaguligand
Protocol: The ability of Annexin V to inhibit coaguligand-induced thrombosis in vivo was examined in L540 Hodgkin-bearing SCID mice.
Four hours after the last injection mice were anesthetized and perfused with heparinized saline. Tumors were removed, fixed with 4% formalin, paraffin-embedded and stained with hematoxylene-eosin. The number of thrombosed and non-thrombosed blood vessels were counted and the percentage of thrombosis was calculated.
Groups of tumor-bearing mice were treated with one of the control or test reagents. […] Identical results were obtained in both mice per group.

[13] = test system: Factor X to Xa conversion on A20 cells; test: Factor Xa production assay on A20 cells; assay type: cell-based, mouse; details: Factors II, VII, IX and X present

Molecule: OO [H2O2]
- cells with PS at the cell surface ([1]; H2O2 as low as 20 μM (lower than 100 μM)): about 50%
- cells with PS translocation ([1]; H2O2 higher than 100 μM, 1 hour): ~90%
- cell viability ([2]; H2O2 higher than 100 μM): 50-60%
- cell viability ([2]; low levels of H2O2, identical to untreated cells): 95%
- viability ([3]; 15 μM H2O2): 90 to 95%
- viable cells ([3]; 1500 μM H2O2): 0%-50%

Molecule: VEGF
- tissue factor expression on the surface of HUVEC [4]: upregulated tissue factor expression

Molecule: Cc1ccc2c(=O)c3cccc(CC(=O)O)c3oc2c1C [DMXAA]
- less effective than endotoxin in inducing TNFα [5]: 20 fold

Molecule: B21-2/10H10 bispecific antibody
- time for fibrin strands to form after adding mouse plasma to A20 cells [6]: 36 s

Molecule: B21-2 anti-I-A^d antibody
- fold higher affinity than M5/114.15.2 [7]: 5 to 10 fold

Molecule: NC(=O)c1nnn(Cc2cc(Cl)c(C(=O)c3ccc(Cl)cc3)c(Cl)c2)c1N [CAI, carboxyamidotriazole]
- cancer patients with disease stabilization [8]: 49%

B1: recombinant, depyrogenated truncated Tissue Factor (amino acids 1-219) of Example X (other, human, UniProt P13726 33-251, looked up)
chain: SGTTNTVAAYNLTWKSTNFKTILEWEPKPVNQVYTVQISTKSGDWKSKCFYTTDTECDLTDEIVKDVKQTYLARVFSYPAGNVESTGSAGEPLYENSPEFTPYLETNLGQPTIQSFEQVGTKVNVTVEDERTLVRRNNTFLSLRDVFGKDLIYTLYYWKSSSSGKKTAKTNTNEFLIDVDKGENYCFSVQAVIPSRTVNRKSTDSPVECMGQEKGEFRE
notes: also called tTF; endotoxin-free tTF
- binding result [9]: no binding

B2: H6-tTF220-cys-C′: tTF219 with Ile-Cys after amino acid 219, (His)6 (protein)
chain: HHHHHHAMALVPRGSGTTNTVAAYNLTWKSTNFKTILEWEPKPVNQVYTVQISTKSGDWKSKCFYTTDTECDLTDEIVKDVKQTYLARVFSYPAGNVESTGSAGEPLYENSPEFTPYLETNLGQPTIQSFEQVGTKVNVTVEDERTLVRRNNTFLSLRDVFGKDLIYTLYYWKSSSSGKKTAKTNTNEFLIDVDKGENYCFSVQAVIPSRTVNRKSTDSPVECMGQEKGEFRE
- concentration at which plasma coagulated in 50 seconds [10]: 0.5 nM

B3: H6-tTF221-cys-C′ dimer: chemically conjugated disulfide dimer of H6-tTF221-cys-C′ (protein)
chain: HHHHHHAMALVPRGSGTTNTVAAYNLTWKSTNFKTILEWEPKPVNQVYTVQISTKSGDWKSKCFYTTDTECDLTDEIVKDVKQTYLARVFSYPAGNVESTGSAGEPLYENSPEFTPYLETNLGQPTIQSFEQVGTKVNVTVEDERTLVRRNNTFLSLRDVFGKDLIYTLYYWKSSSSGKKTAKTNTNEFLIDVDKGENYCFSVQAVIPSRTVNRKSTDSPVECMGQEKGEFRE
- concentration at which plasma coagulated in 50 seconds [10]: 4 nM
- coagulation inducing activity lower than reference [10]: 4 fold

B4: Annexin V: binds to PS with high affinity (protein, UniProt P08758 2-320, looked up)
Annexin A5: AQVLRGTVTDFPGFDERADAETLRKAMKGLGTDEESILTLLTSRSNAQRQEISAAFKTLFGRDLLDDLKSELTGKFEKLIVALMKPSRLYDAYELKHALKGAGTNEKVLTEIIASRTPEELRAIKQVYEEEYGSSLEDDVVGDTSGYYQRMLVVLLQANRDPDAGIDEAQVEQDAQALFQAGELKWGTDEEKFITIFGTRSVSHLRKVFDKYMTISGFQIEETIDRETSGNLEQLLLAVVKSIRSIPAYLAETLYYAMKGAGTDDHTLIRVMVSRSEIDLFNIRKEFRKNFATSLYSMIKGDTSGDYKKALLLLCGEDD
- inhibition of factor Xa production [11]: 58%
- effect on tumor thrombosis / morphology [12]: did not alter tumor morphology

B5: IgG-H6-N′-cys-tTF219: one molecule of IgG linked via SMPT to one or two molecules of tTF (conjugate)
chain: HHHHHHAMALVPRGSCGTTNTVAAYNLTWKSTNFKTILEWEPKPVNQVYTVQISTKSGDWKSKCFYTTDTECDLTDEIVKDVKQTYLARVFSYPAGNVESTGSAGEPLYENSPEFTPYLETNLGQPTIQSFEQVGTKVNVTVEDERTLVRRNNTFLSLRDVFGKDLIYTLYYWKSSSSGKKTAKTNTNEFLIDVDKGENYCFSVQAVIPSRTVNRKSTDSPVECMGQEKGEFRE
modifications: left off: large carriers
- concentration at which plasma coagulated in 50 seconds [10]: 5 nM
- coagulation inducing activity lower than reference [10]: 5 fold
- less active than H6-N′-cys-tTF219 at inducing Xa formation [13]: 2 fold

B6: Fab′-H6-N′-cys-tTF219: Fab′ fragment disulfide-linked to H6-N′-cys-tTF219 (conjugate)
chain: HHHHHHAMALVPRGSCGTTNTVAAYNLTWKSTNFKTILEWEPKPVNQVYTVQISTKSGDWKSKCFYTTDTECDLTDEIVKDVKQTYLARVFSYPAGNVESTGSAGEPLYENSPEFTPYLETNLGQPTIQSFEQVGTKVNVTVEDERTLVRRNNTFLSLRDVFGKDLIYTLYYWKSSSSGKKTAKTNTNEFLIDVDKGENYCFSVQAVIPSRTVNRKSTDSPVECMGQEKGEFRE
modifications: left off: another chain or arm of the molecule; large carriers
- activity at inducing Xa formation relative to H6-N′-cys-tTF219 [13]: as active as H6-N′-cys-tTF219 itself

B7: H6-tTF219-cys-C′: tTF with (His)6 and a Cys after amino acid 219 (protein)
chain: HHHHHHAMALVPRGSGTTNTVAAYNLTWKSTNFKTILEWEPKPVNQVYTVQISTKSGDWKSKCFYTTDTECDLTDEIVKVKQTYLARVFSYPAGNVESTGSAGEPLYENSPEFTPYLETNLGQPTIQSFEQVGTKVNVTVEDRTLVRRNNTFLSLRDVFGKDLIYTLYYWKSSSSGKKTAKTNTNEFLIDVDKGENYCFSVQAVIPSRTVNRKSTDSPVECMGQEKGEFREC
- concentration at which plasma coagulated in 50 seconds [10]: 3 nM

B8: tTF220-cys-C′: H6-tTF220-cys-C′ without the (His)6 tag (protein)
chain: GSGTTNTVAAYNLTWKSTNFKTILEWEPKPVNQVYTVQISTKSGDWKSKCFYTTDTECDLTDEIVKDVKQTYLARVFSYPAGNVESTGSAGEPLYENSPEFTPYLETNLGQPTIQSFEQVGTKVNVTVEDERTLVRRNNTFLSLRDVFGKDLIYTLYYWKSSSSGKKTAKTNTNEFLIDVDKGENYCFSVQAVIPSRTVNRKSTDSPVECMGQEKGEFREIC
- concentration at which plasma coagulated in 50 seconds [10]: 0.5 nM

B9: tTF221-cys-C′: H6-tTF221-cys-C′ without the (His)6 tag (protein)
chain: GSGTTNTVAAYNLTWKSTNFKTILEWEPKPVNQVYTVQISTKSGDWKSKCFYTTDTECDLTDEIVKDVKQTYLARVFSYPAGNVESTGSAGEPLYENSPEFTPYLETNLGQPTIQSFEQVGTKVNVTVEDERTLVRRNNTFLSLRDVFGKDLIYTLYYWKSSSSGKKTAKTNTNEFLIDVDKGENYCFSVQAVIPSRTVNRKSTDSPVECMGQEKGEFREIFC
- concentration at which plasma coagulated in 50 seconds [10]: 0.5 nM
